Results reported in article PMC5680806 (mAbs, 2017).
Where a chain is given by its changes, count along the chain named.

B1: Balb-1 (antibody, V domains shown)
VH: QAYLQQSGPELKKPGETVKISCKASGYTFTNYGMNWVKQAPGKGLKWMGWINTNTGEPTYAEEFKGRFAFSLETSASTAYLQINNLKNEDTATYFCASNYYWYFDVWGAGTTVTVSS
VL: DVVLTQSPATLSVTPGDSVSLSCRASQSISNNLHWYQQKSHESPRLLIKYASQSISGIPSRFSGSGSGTDFTLSINSVETEDFGMYFCQQSNSWPLTFGAGTKLELK
B2: SJL-564-1 (antibody, V domains shown)
VH: QAYLQQSGAELARPGASVKLSCKASGYTFTSYGISWVKQRTGQGLEWIGEIYPRSGNTYYNEKFKGKATLTADKSSSTAYMELRSLTSEDSAVYFCARSTYSNYVYAMDYWGQGTSVTVSS
VL: DVVLTQTPLSLPVSLGDQASISCRSSQSIVHSNGNTYLEWYLQKPGQSPKLLIYKVSNRFSGVPDRFSGSGSGTDFTLKISRVEAEDLGVYYCFQGSHVPYTFGGGTKLEIK
B3: SJL-565-1 (antibody, V domains shown)
VH: QAYLQQSGPELVKPGASVKISCKASGYTFTDYYINWVKQRPGQGLEWIGWIYPGSGNTKYNEKFKGKATLTVDTSSSTAYMQLSSLTSEDSAVYFCARSVYDYDEDWGQGTRVTVSA
VL: DIVMTQSQKFMSTSVGDRVSVTCKASQNVGTNVAWYQQKPGQSPKALIYSASYRYSGVPDRFTGSGSGTDFTLTISNVQSEDLAEYFCQQYNSYPFTFGSGTKLEIK
B4: SJL-565-3 (antibody, V domains shown)
VH: B3 VH with Q82H, L83V, A97S, R98S, V100R, R112L
VL: B3 VL

Biological target: recombinant programmed cell death protein 1 (PD-1) (Homo sapiens, UniProt Q15116)
Sequence (Q15116 25-170): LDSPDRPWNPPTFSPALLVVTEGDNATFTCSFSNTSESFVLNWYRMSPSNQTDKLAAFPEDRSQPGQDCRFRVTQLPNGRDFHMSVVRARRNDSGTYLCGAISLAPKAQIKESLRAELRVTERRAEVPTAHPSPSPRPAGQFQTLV

Binder | binding result
B1 | binds
B2 | binds
B3 | binds
B4 | binds
